Experimental data reported in patent US20210214435A1 (MorphoSys, published 2021).

T1: human GPVI (full-length) expressed on stably transfected rat basophilic RBL-2H3 cells (human, UniProt Q9HCN6 21-339)
T1 sequence (looked up): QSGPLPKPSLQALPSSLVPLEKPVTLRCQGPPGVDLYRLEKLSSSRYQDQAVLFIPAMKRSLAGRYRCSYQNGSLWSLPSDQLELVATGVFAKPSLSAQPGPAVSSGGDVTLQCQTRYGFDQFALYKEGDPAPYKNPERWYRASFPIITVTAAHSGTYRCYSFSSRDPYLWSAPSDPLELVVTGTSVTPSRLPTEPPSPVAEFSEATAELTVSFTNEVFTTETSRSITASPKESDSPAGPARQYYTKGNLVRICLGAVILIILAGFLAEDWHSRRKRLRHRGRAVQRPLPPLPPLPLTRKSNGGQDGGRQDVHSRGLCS

T2: human GPVI (full-length) expressed on stably transfected CHO cells (human, UniProt Q9HCN6 21-339)
T2 chain: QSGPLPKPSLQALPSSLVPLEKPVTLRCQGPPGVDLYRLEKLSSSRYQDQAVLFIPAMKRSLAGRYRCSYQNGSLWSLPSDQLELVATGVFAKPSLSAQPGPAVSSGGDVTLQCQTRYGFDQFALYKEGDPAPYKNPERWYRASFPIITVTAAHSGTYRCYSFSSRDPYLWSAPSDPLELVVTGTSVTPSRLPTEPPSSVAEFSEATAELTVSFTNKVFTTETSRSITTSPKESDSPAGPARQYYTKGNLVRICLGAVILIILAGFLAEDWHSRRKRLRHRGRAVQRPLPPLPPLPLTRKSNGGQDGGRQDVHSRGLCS

T3: cynomolgus monkey GPVI (full-length) expressed on stably transfected CHO cells (cynomolgus monkey, UniProt Q9HCN6 21-339 (human entry))
T3 chain: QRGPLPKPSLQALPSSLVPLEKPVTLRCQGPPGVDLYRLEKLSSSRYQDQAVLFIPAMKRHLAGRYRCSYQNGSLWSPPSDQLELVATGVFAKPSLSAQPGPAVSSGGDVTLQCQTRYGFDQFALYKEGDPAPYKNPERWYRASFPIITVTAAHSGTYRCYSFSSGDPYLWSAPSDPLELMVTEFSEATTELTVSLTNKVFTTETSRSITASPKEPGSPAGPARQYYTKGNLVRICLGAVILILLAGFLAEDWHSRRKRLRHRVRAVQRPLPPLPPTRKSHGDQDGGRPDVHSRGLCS

T4: mouse GPVI (full-length) expressed on stably transfected CHO cells (mouse, UniProt P0C191 22-313)
T4 sequence: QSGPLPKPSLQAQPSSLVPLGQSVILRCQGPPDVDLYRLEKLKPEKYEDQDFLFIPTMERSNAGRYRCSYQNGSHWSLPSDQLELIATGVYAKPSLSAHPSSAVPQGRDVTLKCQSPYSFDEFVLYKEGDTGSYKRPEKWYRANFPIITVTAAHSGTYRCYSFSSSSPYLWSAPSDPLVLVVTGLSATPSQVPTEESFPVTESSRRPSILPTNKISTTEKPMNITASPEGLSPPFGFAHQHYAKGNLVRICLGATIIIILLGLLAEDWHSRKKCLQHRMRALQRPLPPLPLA


How the values were obtained:
[1] = biological target: T1, human GPVI (full-length) expressed on …; test: cell-based or functional assay
[2] = biological target: T2, human GPVI (full-length) expressed on …; test: Cell ELISA (MSD) on CHO cells expressing GPVI
Method: (§1) CHO cells stably transfected with either human, cynomolgus monkey, or mouse GPVI (SEQ ID NO: 1, SEQ ID NO: 2, SEQ ID NO: 3, respectively and as described in Example 1) were seeded at a density of 5000 cells/well in growth medium on a 96 well high bind plate (Meso Scale Discovery) and cultivated overnight at 37° C. and 5% CO2. Cells were blocked with PBS supplied with 5% BSA and then incubated with Fab (comprising a modified heavy chain constant region) serially diluted to concentrations between 300 nM to 5 pM in PBS supplied with 0.5% BSA. After washing, bound Fab was detected using ECL-conjugated detection antibody directed against human F(ab′)2 fragment (Jackson Immuno Research). MSD read buffer (Meso Scale Discovery) was added to cells prior to readout in a Sector Imager6000 (Meso Scale Discovery). EC50 values were calculated using Prism 5 software (GraphPad).

[3] = biological target: T3, cynomolgus monkey GPVI (full-length) …; test: Cell ELISA (MSD) on CHO cells expressing GPVI
Method: as §1

[4] = biological target: T5, cynomolgus monkey GPVI extracellular domain fused at its C-terminus to human IgG1 Fc (GPVI-Fc) (cynomolgus monkey; human); test: Competition ELISA (MSD): cynomolgus GPVI-Fc preincubated with Fab, then on coated VitroCol (competitor)
T5 construct: also called cyGPVI-2; cyGPVI
Method: (§2) 1 or 10 μg/ml of recombinant GPVI collagen substrate (crosslinked collagen-related peptide (CRP-XL (Anaspec, Inc.), rat-tail collagen (Enzo Life Sciences) or VitroCol (Advanced BioMatrix, Inc.) was coated on a MSD-plate over night at 4° C., washed with PBST, blocked for 1 h at RT with PBS supplemented with 0.05% Tween-20 and 3% skim milk powder, and subsequently washed again with PBST. Purified recombinant GPVI antigens (human, cynomolgus monkey or mouse GPVI as prepared in Example 1) diluted in PBS and varying concentrations of Fab (comprising a modified heavy chain constant region) diluted in PBS (final concentration range 200-0.3 μg/ml) were incubated in a polypropylene plate for 30 min at RT. Fab/GPVI-Fc mixture was added to coated collagen substrate for 1 h at RT. After washing with PBST, bound GPVI form different species was detected using an ECL-conjugated detection antibody directed against human Fc (Jackson Immuno Research) for 1 h at RT. MSD read buffer (Meso Scale Discovery) was added prior to readout in a Sector Imager6000 (Meso Scale Discovery).

[5] = biological target: T6, mouse GPVI extracellular domain fused at its C-terminus to human IgG1 Fc (GPVI-Fc) (mouse; human); test: Competition ELISA (MSD): mouse GPVI-Fc preincubated with Fab, then on coated rat-tail collagen (competitor)
T6 construct: also called mGPVI; mouse GPVI-Fc
Method: as §2

[6] = biological target: T4, mouse GPVI (full-length) expressed on …; test: Cell ELISA (MSD) on CHO cells expressing GPVI
Method: as §1

Binder	Cell adhesion assay IC50 [nM], coated VitroCol [1] [nM]	Cell adhesion assay Max. inhibition at 200 nM Fab [%], coated VitroCol [1] [%]	EC50 [2] [nM]	EC50 [3] [nM]	IC50 [4] [nM]	Max. inhibition at 200 nM Fab [%] [4] [%]	IC50 [5] [nM]	Max. inhibition at 200 nM Fab [%] [5] [%]	Cell adhesion assay IC50 [nM], coated CRP-XL [1] [nM]	Cell adhesion assay Max. inhibition at 200 nM Fab [%], coated CRP-XL [1] [%]	EC50 [6] [nM]
Fab #1 comprising a modified heavy chain constant region (Fab, V domains shown, Human Fab from the Ylanthia library; produced in HKB11 cells; also called Fab #1 mod; HC) VH: QVQLVQSGAEVKKPGASVKVSCKASGYTFTSHYMHWVRQAPGQGLEWMGLIEPSEGETEYAQRFQGRVTMTRDTSTSTVYMELSSLRSEDTAVYYCARDSSRSYPLGFDIWGQGTLVTVSS VL: QSVLTQPPSVSAAPGQKVTISCSGSSSNIGNNYVSWYQQLPGTAPKLLIYDNNKRPSGIPDRFSGSKSGTSATLGITGLQTEDEADYYCAAWDFRSSRWVFGGGTKLTVLG	0.58	55	0.89	0.74	9.7	84	17.2	89			
Fab #2 comprising a modified heavy chain constant region (Fab, V domains shown, Human Fab from the Ylanthia library; produced in HKB11 cells; also called Fab #2 mod; HC) VH: QVQLVESGGGLVKPGGSLRLSCAASGFSFSDHYMSWIRQAPGKGLEWVSSVGSEGKFIDYAASVKGRFTISRDNAKNSLYLQMNSLRAEDTAVYYCARHYREFRWHYYYFDYWGQGTLVTVSS VL: QSVLTQPPSVSGAPGQRVTISCTGSSSNIGAGYDVHWYQQLPGTAPKLLIYGNSNRPSGVPDRFSGSKSGTSASLAITGLQAEDEADYYCQSHDLGAHVWVFGGGTKLTVLG	0.89	93	0.78	1.06	4.3	100	5.7	99	1.59	100	8.28
Fab #4 comprising a modified heavy chain constant region (Fab, V domains shown, Human Fab from the Ylanthia library; produced in HKB11 cells; also called Fab #4 mod; HC) VH: QVQLVQSGAEVKKPGASVKVSCKASGGAFTSSYMHWVRQAPGQGLEWMGIIEPTGASTLYAQRFQGRVTMTRDTSTSTVYMELSSLRSEDTAVYYCARTGIALPLGFDLWGQGTLVTVSS VL: QSVLTQPPSVSAAPGQKVTISCSGSSSNIGNNYVSWYQQLPGTAPKLLIYDNNKRPSGIPDRFSGSKSGTSATLGITGLQTEDEADYYCAAWSTRFRWVFGGGTKLTVLG	0.57	59	0.78	0.8	8.1	91		87			0.93

Further binders by falling EC50 [2], results first:

Cell adhesion assay IC50 [nM], coated VitroCol [1] [nM]	Cell adhesion assay Max. inhibition at 200 nM Fab [%], coated VitroCol [1] [%]	EC50 [2] [nM]	EC50 [3] [nM]	IC50 [4] [nM]	Max. inhibition at 200 nM Fab [%] [4] [%]	IC50 [5] [nM]	Max. inhibition at 200 nM Fab [%] [5] [%]	Cell adhesion assay IC50 [nM], coated CRP-XL [1] [nM]	Cell adhesion assay Max. inhibition at 200 nM Fab [%], coated CRP-XL [1] [%]	EC50 [6] [nM]	Binder
1.17	92	2.8	2.09	5.5	100			2.69	100		Reference Control Antibody RefFab #1 (humanized GPVI antibody of WO2011073954A2, SANOFI) (Fab, V domains shown, Cloned into mammalian Fab expression vectors; a glycine-serine linker (G4S)2 was added to the C-terminus of the Fab heavy chain) VH: EVQLLESGPGLVAPSGSLSITCTVSGFSLTGYGVNWVRQPPGKGLEWLGMIWGDGSTDYQSTLKSRLSISKDNSKSQVFLKMNSLRTDDTARYYCARDLPMDYWGLGTSVTVSS VL: DIQMTQSPSSLSASVGGRVTITCKASQDINKYIAWYQHKPGKGPSLLIHYTSTLQPGVPSRFSGSGSGRDYSFSISNLQPEDIATYYCLQYANLLTFGGGTKLEIKR
0.84	91	0.77	1.06	4.7	100	5.3	99	1.81	100	3.74	Fab #3 comprising a modified heavy chain constant region (Fab, V domains shown, Human Fab from the Ylanthia library; produced in HKB11 cells; also called Fab #3 mod; HC) VH: QVQLVESGGGLVKPGGSLRLSCAASGFSFGDYYVSWIRQAPGKGLEWVSAIGGSGSAVQYAESVKGRFTISRDNAKNSLYLQMNSLRAEDTAVYYCARHYREFRWHYYYFDYWGQGTLVTVSS VL: QSVLTQPPSVSGAPGQRVTISCTGSSSNIGAGYDVHWYQQLPGTAPKLLIYGNSNRPSGVPDRFSGSKSGTSASLAITGLQAEDEADYYCQSHDLGAHVWVFGGGTKLTVLG
